# Experimental data from patent US20170007716A1 (published 2017).
# B1: humanized anti-FAP IgG1 hu36 (hu36-IgG1) (antibody, V domains shown)
# VH: QVQLVQSGAEVKKPGASVKVSCKASGYTFTENIIHWVRQAPGQGLEWMGWFHPGSGSIKYNEKFKDRVTMTADTSTSTVYMELSSLRSEDTAVYYCARHGGTGRGAMDYWGQGTLVTVSS
# VL: DIQMTQSPSSLSASVGDRVTITCRASKSVSTSAYSYMHWYQQKPGKAPKLLIYLASNLESGVPSRFSGSGSGTDFTLTISSLQPEDFATYYCQHSRELPYTFGQGTKLEIKR
# B2: Anti-FAP hu36:TAM471 ADC (ADC-471) (antibody, V domains shown)
# VH: B1 VH
# VL: B1 VL
# modifications: cytolysin TAM471 through maleimidocaproyl-vcPABA linker on cysteine residues (not site-specific); cytolysin TAM471 through maleimidocaproyl-vcPABA linker on cysteine residues (not site-specific), DAR 3.48 for the whole antibody
# What was measured:
# [1] = molecular target: T1, human FAP on HT1080 cells (HT1080-huFAP, stable transfectants) (UniProt Q12884 1-760); test: FACS
# huFAP fusion protein [2] = molecular target: T2, huFAP fusion protein (UniProt Q12884 27-760); test: ELISA
# [3] = molecular target: T1, human FAP on HT1080 cells …; test: FACS; DAR 3.48
# huFAP fusion protein [4] = molecular target: T2, huFAP fusion protein; test: ELISA; DAR 3.48
# T2 sequence (Q12884 27-760): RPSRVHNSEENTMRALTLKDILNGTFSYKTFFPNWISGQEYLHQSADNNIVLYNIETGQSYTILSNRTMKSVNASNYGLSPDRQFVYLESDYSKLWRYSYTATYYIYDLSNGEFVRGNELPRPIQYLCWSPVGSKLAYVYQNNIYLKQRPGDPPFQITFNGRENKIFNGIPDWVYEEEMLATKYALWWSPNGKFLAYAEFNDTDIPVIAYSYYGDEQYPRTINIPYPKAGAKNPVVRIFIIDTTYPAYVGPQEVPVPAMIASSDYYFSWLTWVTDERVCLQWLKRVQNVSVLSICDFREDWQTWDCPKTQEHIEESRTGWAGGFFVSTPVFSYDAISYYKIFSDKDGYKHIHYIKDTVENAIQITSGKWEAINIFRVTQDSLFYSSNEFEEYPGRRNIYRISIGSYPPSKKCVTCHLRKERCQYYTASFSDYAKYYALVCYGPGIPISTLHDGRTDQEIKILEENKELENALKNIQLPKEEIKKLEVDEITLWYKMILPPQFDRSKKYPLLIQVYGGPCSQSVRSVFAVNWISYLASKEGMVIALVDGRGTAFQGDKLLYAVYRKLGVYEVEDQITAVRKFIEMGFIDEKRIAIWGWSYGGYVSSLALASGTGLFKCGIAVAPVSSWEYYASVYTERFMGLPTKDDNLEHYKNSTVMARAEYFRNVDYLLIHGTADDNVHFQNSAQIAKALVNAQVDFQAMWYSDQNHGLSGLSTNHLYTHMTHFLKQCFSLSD
# T1 sequence (Q12884 whole entry, the tested form may be a part): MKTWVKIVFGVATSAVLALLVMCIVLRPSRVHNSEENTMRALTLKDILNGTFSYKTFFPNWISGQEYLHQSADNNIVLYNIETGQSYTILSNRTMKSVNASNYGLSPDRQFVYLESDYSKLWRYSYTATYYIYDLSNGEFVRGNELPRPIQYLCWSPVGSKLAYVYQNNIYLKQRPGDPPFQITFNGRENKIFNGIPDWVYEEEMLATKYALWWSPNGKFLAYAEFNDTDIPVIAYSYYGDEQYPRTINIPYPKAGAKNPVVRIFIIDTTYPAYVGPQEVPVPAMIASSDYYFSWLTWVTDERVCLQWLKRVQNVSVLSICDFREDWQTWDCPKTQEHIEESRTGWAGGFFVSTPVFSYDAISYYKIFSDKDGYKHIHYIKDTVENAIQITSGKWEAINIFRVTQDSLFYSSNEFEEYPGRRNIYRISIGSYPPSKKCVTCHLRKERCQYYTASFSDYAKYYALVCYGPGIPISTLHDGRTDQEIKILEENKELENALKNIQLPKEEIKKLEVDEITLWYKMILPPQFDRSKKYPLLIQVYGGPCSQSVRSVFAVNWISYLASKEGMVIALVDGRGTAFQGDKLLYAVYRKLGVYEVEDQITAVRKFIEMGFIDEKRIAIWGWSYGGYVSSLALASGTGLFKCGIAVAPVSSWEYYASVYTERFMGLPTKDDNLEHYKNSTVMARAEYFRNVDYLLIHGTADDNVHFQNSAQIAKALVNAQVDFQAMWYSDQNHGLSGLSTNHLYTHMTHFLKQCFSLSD
Binder,EC50 [1] [nM],EC50 (huFAP fusion protein [2]) [nM],EC50 [3] [nM],EC50 (huFAP fusion protein [4]) [nM]
B1,0.067,0.21,,
B2,,,0.081,0.153
